The target of this series is T1, AAV Rep78 wild-type (adeno-associated virus 2, UniProt Q89268 SEQ:1-621).
T1 sequence: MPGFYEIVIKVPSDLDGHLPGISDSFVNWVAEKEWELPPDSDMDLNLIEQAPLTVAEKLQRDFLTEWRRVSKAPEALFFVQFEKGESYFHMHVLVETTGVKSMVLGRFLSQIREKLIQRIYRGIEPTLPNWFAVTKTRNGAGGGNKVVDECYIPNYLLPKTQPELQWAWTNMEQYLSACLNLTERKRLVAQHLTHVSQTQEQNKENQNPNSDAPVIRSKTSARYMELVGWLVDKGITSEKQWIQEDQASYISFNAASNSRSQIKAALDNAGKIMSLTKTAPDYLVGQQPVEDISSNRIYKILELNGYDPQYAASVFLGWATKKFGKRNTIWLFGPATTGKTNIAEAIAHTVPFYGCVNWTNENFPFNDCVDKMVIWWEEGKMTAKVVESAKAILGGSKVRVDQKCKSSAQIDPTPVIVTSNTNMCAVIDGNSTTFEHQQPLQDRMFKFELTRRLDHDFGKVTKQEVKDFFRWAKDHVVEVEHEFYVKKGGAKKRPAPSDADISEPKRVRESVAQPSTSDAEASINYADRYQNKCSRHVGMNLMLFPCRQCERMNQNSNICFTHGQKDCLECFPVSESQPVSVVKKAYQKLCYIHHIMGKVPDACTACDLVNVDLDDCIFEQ
Nature of the series: EMSA; minus strand strongly recognized. The conditions noted are these: tags: MBP fusion (pMALc2, amylose purified); label: 32P.

B1: HPV-16 p97 minus strand nt 14-106 (ssDNA)
DNA: CATTGCAGTTCTCTTTTGGTGCATAAAATGTCTGCTTTTATACTAACCGGTTTCGGTTCAACCGATTTCGGTTACGCCCTTAGTTTTATACAT
modifications: [NONE]
On to B1, for which the binding result is reported as “binds”.

The values are drawn from patent US20080145339, “Adeno-associated virus AAV Rep78 major regulatory protein mutants thereof and uses thereof” (University of Arkansas, published 2008).
